Results: US7696168 (TUFTS MEDICAL CENTER, dated 2010)
The star is where a group is joined. Palmitoyl = CCCCCCCCCCCCCCCC(=O)*

Assays:
Test in all cases: cell-based or functional assay
[1] = target: T1, human PAR1 (human, UniProt P25116 42-425)
T1 sequence (looked up): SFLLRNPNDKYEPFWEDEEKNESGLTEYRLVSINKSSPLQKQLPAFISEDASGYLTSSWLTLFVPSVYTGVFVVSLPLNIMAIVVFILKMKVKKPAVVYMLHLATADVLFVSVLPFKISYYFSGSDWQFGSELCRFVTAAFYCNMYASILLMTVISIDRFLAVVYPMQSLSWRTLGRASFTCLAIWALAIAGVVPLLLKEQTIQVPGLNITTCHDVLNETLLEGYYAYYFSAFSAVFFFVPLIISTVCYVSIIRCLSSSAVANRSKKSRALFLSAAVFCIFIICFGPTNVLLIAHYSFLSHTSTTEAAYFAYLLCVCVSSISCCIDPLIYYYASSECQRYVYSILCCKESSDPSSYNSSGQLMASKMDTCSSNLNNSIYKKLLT

[2] = target: rat somatostatin receptor (SSTR2) (rat, UniProt P30680 1-369)
Chain of rat somatostatin receptor (SSTR2) (P30680 whole entry): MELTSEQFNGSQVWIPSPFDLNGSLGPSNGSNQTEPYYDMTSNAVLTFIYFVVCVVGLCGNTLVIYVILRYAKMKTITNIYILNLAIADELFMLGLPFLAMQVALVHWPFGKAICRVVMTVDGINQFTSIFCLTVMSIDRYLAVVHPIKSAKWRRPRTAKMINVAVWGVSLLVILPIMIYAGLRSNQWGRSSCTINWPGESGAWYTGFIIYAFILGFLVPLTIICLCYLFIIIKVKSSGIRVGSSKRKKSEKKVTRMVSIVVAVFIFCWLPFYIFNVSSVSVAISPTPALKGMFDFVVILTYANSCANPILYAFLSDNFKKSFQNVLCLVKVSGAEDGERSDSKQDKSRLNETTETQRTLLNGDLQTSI

[3] = target: T2, human cholecystokinin B receptor (CCKB) (human, UniProt P32239 1-447)
T2 sequence (looked up): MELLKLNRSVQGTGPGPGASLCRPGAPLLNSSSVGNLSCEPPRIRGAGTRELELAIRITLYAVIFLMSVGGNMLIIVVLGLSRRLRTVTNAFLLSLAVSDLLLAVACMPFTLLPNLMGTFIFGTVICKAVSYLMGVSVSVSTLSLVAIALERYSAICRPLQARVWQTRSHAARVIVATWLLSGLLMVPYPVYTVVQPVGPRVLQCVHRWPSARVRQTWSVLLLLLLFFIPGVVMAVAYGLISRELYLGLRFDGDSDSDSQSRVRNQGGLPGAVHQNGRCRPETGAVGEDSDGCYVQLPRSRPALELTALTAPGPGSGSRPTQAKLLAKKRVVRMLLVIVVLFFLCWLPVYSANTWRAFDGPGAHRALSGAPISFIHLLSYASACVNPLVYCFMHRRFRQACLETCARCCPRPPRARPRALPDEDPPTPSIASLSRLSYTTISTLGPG

[4] = target: MC4 receptor (MC4R) (human, UniProt P32245 1-332)
Chain of MC4 receptor (MC4R) (P32245 whole entry): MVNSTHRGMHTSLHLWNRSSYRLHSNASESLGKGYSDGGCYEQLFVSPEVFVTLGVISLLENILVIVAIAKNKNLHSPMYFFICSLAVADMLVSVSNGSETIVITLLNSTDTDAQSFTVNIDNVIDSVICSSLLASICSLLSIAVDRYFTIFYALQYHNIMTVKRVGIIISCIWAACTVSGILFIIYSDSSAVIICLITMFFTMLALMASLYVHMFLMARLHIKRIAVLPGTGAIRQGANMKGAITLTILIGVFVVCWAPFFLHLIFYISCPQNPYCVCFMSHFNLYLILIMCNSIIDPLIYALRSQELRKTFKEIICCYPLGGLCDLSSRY

B1: P1pal-19E (Pal-RCESSSAEANRSKKERELF) (peptide)
peptide: Palmitoyl-RCESSSAEANRSKKERELF-NH2
SMILES: CCCCCCCCCCCCCCCC(=O)N[C@@H](CCCNC(=N)N)C(=O)N[C@@H](CS)C(=O)N[C@@H](CCC(=O)O)C(=O)N[C@@H](CO)C(=O)N[C@@H](CO)C(=O)N[C@@H](CO)C(=O)N[C@@H](C)C(=O)N[C@@H](CCC(=O)O)C(=O)N[C@@H](C)C(=O)N[C@@H](CC(N)=O)C(=O)N[C@@H](CCCNC(=N)N)C(=O)N[C@@H](CO)C(=O)N[C@@H](CCCCN)C(=O)N[C@@H](CCCCN)C(=O)N[C@@H](CCC(=O)O)C(=O)N[C@@H](CCCNC(=N)N)C(=O)N[C@@H](CCC(=O)O)C(=O)N[C@@H](CC(C)C)C(=O)N[C@@H](Cc1ccccc1)C(N)=O
For B1, the “Agonist EC50 (activating phase, InsP formation)” value (shortened to “Agonist EC50”) [1] was 2500 nM, the “Agonist Efficacy (% of full response to extracellular agonist)” value [1] was 11% and the “Agonist IC50 (inhibitory phase, InsP formation)” value [1] was 80000 nM. The “Antagonist IC50 (InsP formation, against 0.1 nM thrombin)” value [1] was over 50000 nM.

B2: S2pal-23 (Pal-KVKSSGIRVGSSKRKKSEKKVTK) (peptide)
peptide: Palmitoyl-KVKSSGIRVGSSKRKKSEKKVTK-NH2
SMILES: CCCCCCCCCCCCCCCC(=O)N[C@@H](CCCCN)C(=O)N[C@H](C(=O)N[C@@H](CCCCN)C(=O)N[C@@H](CO)C(=O)N[C@@H](CO)C(=O)NCC(=O)N[C@H](C(=O)N[C@@H](CCCNC(=N)N)C(=O)N[C@H](C(=O)NCC(=O)N[C@@H](CO)C(=O)N[C@@H](CO)C(=O)N[C@@H](CCCCN)C(=O)N[C@@H](CCCNC(=N)N)C(=O)N[C@@H](CCCCN)C(=O)N[C@@H](CCCCN)C(=O)N[C@@H](CO)C(=O)N[C@@H](CCC(=O)O)C(=O)N[C@@H](CCCCN)C(=O)N[C@@H](CCCCN)C(=O)N[C@H](C(=O)N[C@H](C(=O)N[C@@H](CCCCN)C(N)=O)[C@@H](C)O)C(C)C)C(C)C)[C@@H](C)CC)C(C)C
For B2, the “Antagonist IC50 (InsP formation, against 1 µM …)” value [2] was 2000 nM.

B3: P1pal-13 (Pal-AVANRSKKSRALF) (peptide)
peptide: Palmitoyl-AVANRSKKSRALF-NH2
SMILES: CCCCCCCCCCCCCCCC(=O)N[C@@H](C)C(=O)N[C@H](C(=O)N[C@@H](C)C(=O)N[C@@H](CC(N)=O)C(=O)N[C@@H](CCCNC(=N)N)C(=O)N[C@@H](CO)C(=O)N[C@@H](CCCCN)C(=O)N[C@@H](CCCCN)C(=O)N[C@@H](CO)C(=O)N[C@@H](CCCNC(=N)N)C(=O)N[C@@H](C)C(=O)N[C@@H](CC(C)C)C(=O)N[C@@H](Cc1ccccc1)C(N)=O)C(C)C
In the case of B3, the “Agonist EC50” value [1] is reported as 700 nM and the “Agonist IC50 (inhibitory phase, InsP formation)” value [1] is reported as 32000 nM.

B4: Bpal-18 (Pal-SGSRPTQAKLLAKKRVVR) (peptide)
peptide: Palmitoyl-SGSRPTQAKLLAKKRVVR-NH2
SMILES: CCCCCCCCCCCCCCCC(=O)N[C@@H](CO)C(=O)NCC(=O)N[C@@H](CO)C(=O)N[C@@H](CCCNC(=N)N)C(=O)N1CCC[C@H]1C(=O)N[C@H](C(=O)N[C@@H](CCC(N)=O)C(=O)N[C@@H](C)C(=O)N[C@@H](CCCCN)C(=O)N[C@@H](CC(C)C)C(=O)N[C@@H](CC(C)C)C(=O)N[C@@H](C)C(=O)N[C@@H](CCCCN)C(=O)N[C@@H](CCCCN)C(=O)N[C@@H](CCCNC(=N)N)C(=O)N[C@H](C(=O)N[C@H](C(=O)N[C@@H](CCCNC(=N)N)C(N)=O)C(C)C)C(C)C)[C@@H](C)O
With B4 the “Agonist EC50” value [3] was 1500 nM, the “Agonist Efficacy (% of full response to 300 nM CCK-8)” value [3] was 12% and the “Agonist IC50 (inhibitory phase, InsP formation)” value [3] was 10000 nM.

B5: P1pal-7 (Pal-KKSRALF) (peptide)
peptide: Palmitoyl-KKSRALF-NH2
For B5, the “Antagonist IC50 (InsP formation, against 0.1 nM thrombin)” value [1] was 1200 nM.

B6: P1pal-12 (Pal-RCLSSSAVANRS) (peptide)
peptide: Palmitoyl-RCLSSSAVANRS-NH2
SMILES: CCCCCCCCCCCCCCCC(=O)N[C@@H](CCCNC(=N)N)C(=O)N[C@@H](CS)C(=O)N[C@@H](CC(C)C)C(=O)N[C@@H](CO)C(=O)N[C@@H](CO)C(=O)N[C@@H](CO)C(=O)N[C@@H](C)C(=O)N[C@H](C(=O)N[C@@H](C)C(=O)N[C@@H](CC(N)=O)C(=O)N[C@@H](CCCNC(=N)N)C(=O)N[C@@H](CO)C(N)=O)C(C)C
With B6 the “Antagonist IC50 (InsP formation, against 0.1 nM thrombin)” value [1] was 5000 nM.

B7: S2pal-23F (Pal-KVRSSGIRVGSSKRKKSEKKVTF) (peptide)
peptide: Palmitoyl-KVRSSGIRVGSSKRKKSEKKVTF-NH2
SMILES: CCCCCCCCCCCCCCCC(=O)N[C@@H](CCCCN)C(=O)N[C@H](C(=O)N[C@@H](CCCNC(=N)N)C(=O)N[C@@H](CO)C(=O)N[C@@H](CO)C(=O)NCC(=O)N[C@H](C(=O)N[C@@H](CCCNC(=N)N)C(=O)N[C@H](C(=O)NCC(=O)N[C@@H](CO)C(=O)N[C@@H](CO)C(=O)N[C@@H](CCCCN)C(=O)N[C@@H](CCCNC(=N)N)C(=O)N[C@@H](CCCCN)C(=O)N[C@@H](CCCCN)C(=O)N[C@@H](CO)C(=O)N[C@@H](CCC(=O)O)C(=O)N[C@@H](CCCCN)C(=O)N[C@@H](CCCCN)C(=O)N[C@H](C(=O)N[C@H](C(=O)N[C@@H](Cc1ccccc1)C(N)=O)[C@@H](C)O)C(C)C)C(C)C)[C@@H](C)CC)C(C)C
B7 was tested, and the “Agonist EC50” value [2] was 100 nM, the “Agonist Efficacy (% of full response to extracellular agonist)” value [2] was 15% and the “Agonist IC50 (inhibitory phase, InsP formation)” value [2] was 500 nM. The “Antagonist IC50 (InsP formation, against 1 µM …)” value [2] was 3000 nM.

B8: MC4pal-14 (Pal-TGAIRQGANMKGAI) (peptide)
peptide: Palmitoyl-TGAIRQGANMKGAI-NH2
SMILES: CCCCCCCCCCCCCCCC(=O)N[C@H](C(=O)NCC(=O)N[C@@H](C)C(=O)N[C@H](C(=O)N[C@@H](CCCNC(=N)N)C(=O)N[C@@H](CCC(N)=O)C(=O)NCC(=O)N[C@@H](C)C(=O)N[C@@H](CC(N)=O)C(=O)N[C@@H](CCSC)C(=O)N[C@@H](CCCCN)C(=O)NCC(=O)N[C@@H](C)C(=O)N[C@H](C(N)=O)[C@@H](C)CC)[C@@H](C)CC)[C@@H](C)O
With B8 the “EC50, activating phase (adenylate cyclase)” value [4] was about 150 nM, the “IC50, inhibitory phase (adenylate cyclase)” value [4] was about 10000 nM and the “adenylate cyclase activity relative to alpha-MSH” value [4] was 40%.
